Measured values published in paper PMC5729044.

Target: 1wa3-wt, the wild-type trimeric aldolase from which I3-01 was derived
Assay: SEC

“1wa3-wt, the wild-type trimeric aldolase from which I3-01 was derived (enzyme)” was tested, and the stoichiometry N was 3.
